± gives the standard deviation of the averaged measurements.
Test system: Saccharomyces cerevisiae
Test: protein stability index of tFT-peptide fusion (C-terminal peptide) (PSI (0-1 scale)); higher = more stable (slower turnover)
Details: temperature: 30 C
Description: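 MPS profiling in S. cerevisiae of the yeast C-terminome library: the last 12 aa of each annotated ORF are fused to the C-terminus of a sfGFP-mCherry timer, after a GGGS linker. Cells are FACS-sorted into 8 mCherry/sfGFP bins and deep-sequenced. PSI runs from 0 (unstable) to 1 (stable); wild type and das1Δ backgrounds, two technical replicates each.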

[1] = genetic background: das1 deletion

Sequence | protein stability index [1] | protein stability index (genetic background: wild type)
QVNKPGPLTVPF [MEH1 C-terminal 12 aa] | 0.702 ± 0.015 | 0.716 ± 0.018
QWMNEMVERWAN [SOH1 C-terminal 12 aa] | 0.707 ± 0.0074 | 0.7 ± 0.0099
RAKTMNRSQSHV [PFK26 C-terminal 12 aa] | 0.697 ± 0.0089 | 0.7255 ± 0.0013
RAYCVGFKWVRF [MCH5 C-terminal 12 aa] | 0.675 ± 0.02 | 0.145 ± 0.028
RDWSSFSKDYEI [PMS1 C-terminal 12 aa] | 0.7561 ± 0.0022 | 0.699 ± 0.0094
RGRIAAQKRIAA [RPL17A C-terminal 12 aa] | 0.667 ± 0.0084 | 0.604 ± 0.045
RKFFKRMTNFWC [TAT1 C-terminal 12 aa] | 0.7409 ± 0.0066 | 0.436 ± 0.025
RKRFSYTQTKNK [RSM19 C-terminal 12 aa] | 0.678 ± 0.013 | 0.66787 ± 0.00059
RKSKRVLPVSKF [PET309 C-terminal 12 aa] | 0.783 ± 0.0088 | 0.794 ± 0.087
RLIFYPDEYEQL [PRE3 C-terminal 12 aa] | 0.743 ± 0.012 | 0.736 ± 0.071
RLKPRQIVPKRS [SLI15 C-terminal 12 aa] | 0.7194 ± 0.0028 | 0.724 ± 0.054
RLKSQNVVTYYK [NIP100 C-terminal 12 aa] | 0.707 ± 0.032 | 0.692 ± 0.015
RLSRWFNETENI [MEI4 C-terminal 12 aa] | 0.756 ± 0.043 | 0.727 ± 0.096
RMLMGTTKRGRF [YAL037W C-terminal 12 aa] | 0.704 ± 0.02 | 0.6898 ± 0.0036
RNVDKLDVFSNS [MRM2 C-terminal 12 aa] | 0.716 ± 0.019 | 0.727 ± 0.037
RPQYRRIAALEE [PSY3 C-terminal 12 aa] | 0.695 ± 0.023 | 0.672 ± 0.015
RQEEIKKRTALV [DPC25 C-terminal 12 aa] | 0.705 ± 0.0089 | 0.619 ± 0.022
RRFDVYSDVNAH [NIT3 C-terminal 12 aa] | 0.71 ± 0.0033 | 0.677 ± 0.044
RSFVTRFLHFWC [HIP1 C-terminal 12 aa] | 0.777 ± 0.024 | 0.716 ± 0.046
RSIRWFREAGGK [SKI8 C-terminal 12 aa] | 0.695 ± 0.018 | 0.7202 ± 0.0028
RSKYGAKKPSKS [MRPS12 C-terminal 12 aa] | 0.6815 ± 0.0025 | 0.6855 ± 0.0067

Sequence | protein stability index [1] | protein stability index (genetic background: wild type)
RSNAERKRRSPL [PBP2 C-terminal 12 aa] | 0.7121 ± 0.0039 | 0.68 ± 0.021
RSTNGRPQRGYR [YLR326W C-terminal 12 aa] | 0.675 ± 0.027 | 0.664 ± 0.0025
RSWDEFIGFKAY [CPA2 C-terminal 12 aa] | 0.745 ± 0.03 | 0.615 ± 0.041
RTAAESIANDRK [FRD1 C-terminal 12 aa] | 0.674 ± 0.0068 | 0.708 ± 0.05
RTLGYSNNNGNN [UBX6 C-terminal 12 aa] | 0.679 ± 0.019 | 0.678 ± 0.0087
RTNHIYNYENSD [DFG16 C-terminal 12 aa] | 0.703 ± 0.0077 | 0.672 ± 0.011
RVRTLARKHLSK [TRS20 C-terminal 12 aa] | 0.692 ± 0.02 | 0.686 ± 0.018
SAEGSDVLYMQK [LSM7 C-terminal 12 aa] | 0.671 ± 0.0093 | 0.6739 ± 0.0053
SAENEESKEKCE [LAG1 C-terminal 12 aa] | 0.696 ± 0.051 | 0.658 ± 0.021
SAIGSDIVNSIF [LSB1 C-terminal 12 aa] | 0.7044 ± 0.0053 | 0.676 ± 0.024
SAQRDRRYRKRV [RPS17A C-terminal 12 aa] | 0.6665 ± 0.0025 | 0.69 ± 0.067
SCGCGSSFDIEN [ISA2 C-terminal 12 aa] | 0.704 ± 0.015 | 0.632 ± 0.0093
SDDDVSSESEEE [BDF1 C-terminal 12 aa] | 0.6997 ± 0.0067 | 0.658 ± 0.015
SDGFANNRCQRK [YOR034C-A C-terminal 12 aa] | 0.658 ± 0.0075 | 0.718 ± 0.051
SDVISEESYNEA [SVF1 C-terminal 12 aa] | 0.7069 ± 0.0026 | 0.694 ± 0.0074
SELQQIFPVSQQ [SPS100 C-terminal 12 aa] | 0.706 ± 0.011 | 0.689 ± 0.033
SEPTNDDLDATK [MRX10 C-terminal 12 aa] | 0.678 ± 0.033 | 0.675 ± 0.019
SESNDGESSDSD [RPA43 C-terminal 12 aa] | 0.656 ± 0.021 | 0.7176 ± 0.0024
SFKAYVGLPTTG [PIC2 C-terminal 12 aa] | 0.706 ± 0.01 | 0.693 ± 0.009
SFPVVEPMGGST [BDS1 C-terminal 12 aa] | 0.69 ± 0.012 | 0.727 ± 0.014
SFRPKSSNNPFR [ENT4 C-terminal 12 aa] | 0.734 ± 0.02 | 0.674 ± 0.021

Sequence | protein stability index [1] | protein stability index (genetic background: wild type)
SFRSSHFYSLIA [YLR217W C-terminal 12 aa] | 0.691 ± 0.012 | 0.331 ± 0.016
SFTHQEQDTEMN [NAB2 C-terminal 12 aa] | 0.708 ± 0.032 | 0.736 ± 0.019
SFVTKKKAACYR [YIL025C C-terminal 12 aa] | 0.717 ± 0.011 | 0.706 ± 0.0072
SGIVENDFENRS [YOR1 C-terminal 12 aa] | 0.707 ± 0.013 | 0.705 ± 0.084
SGKLASKKRDKK [MRPL36 C-terminal 12 aa] | 0.684 ± 0.021 | 0.651 ± 0.019
SHHPHKNGKISF [YKR011C C-terminal 12 aa] | 0.719 ± 0.028 | 0.69647 ± 0.00034
SHPIDVNLQFIM [MCA1 C-terminal 12 aa] | 0.735 ± 0.013 | 0.689 ± 0.039
SISHPENKVLHK [YNL195C C-terminal 12 aa] | 0.689 ± 0.0083 | 0.699 ± 0.0077
SIVYSWKENSSS [YGL217C C-terminal 12 aa] | 0.704 ± 0.031 | 0.703 ± 0.015
SKGKNSESGGIF [PPR1 C-terminal 12 aa] | 0.699 ± 0.026 | 0.711 ± 0.054
SKKSKKSKKSEE [MRH1 C-terminal 12 aa] | 0.719 ± 0.0089 | 0.695 ± 0.053
SKNDSPKKKGWF [MAS2 C-terminal 12 aa] | 0.694 ± 0.027 | 0.702 ± 0.018
SLDVGKILDVTI [PSR1 C-terminal 12 aa] | 0.686 ± 0.012 | 0.662 ± 0.038
SLFPSLETEDKK [MIH1 C-terminal 12 aa] | 0.674 ± 0.0077 | 0.671 ± 0.02
SLGSVFTILTDS [YGR228W C-terminal 12 aa] | 0.72 ± 0.0074 | 0.7206 ± 0.0043
SLKDLIMQVTKM [CTO1 C-terminal 12 aa] | 0.753 ± 0.046 | 0.654 ± 0.069
SLLFVGPLFLKV [YCL007C C-terminal 12 aa] | 0.401 ± 0.016 | 0.423 ± 0.012
SLRPQERNLYGL [NTH1 C-terminal 12 aa] | 0.691 ± 0.021 | 0.753 ± 0.095
SLYMNISYILLF [YGR073C C-terminal 12 aa] | 0.44985 ± 0.00042 | 0.2066 ± 0.0013
SMKPFKRRKPFF [PRP16 C-terminal 12 aa] | 0.69 ± 0.0092 | 0.72 ± 0.0089
SNNATHNCGNYF [YGR122W C-terminal 12 aa] | 0.712 ± 0.049 | 0.764 ± 0.01

Sequence | protein stability index [1] | protein stability index (genetic background: wild type)
SNPSSHIKKKGL [RRT6 C-terminal 12 aa] | 0.682 ± 0.014 | 0.6362 ± 0.0061
SNRTLSNETDAL [ACE2 C-terminal 12 aa] | 0.7072 ± 0.0038 | 0.701 ± 0.016
SPGYKAYLREER [YSF3 C-terminal 12 aa] | 0.722 ± 0.012 | 0.685 ± 0.019
SPPLSTSPDSRR [YLR416C C-terminal 12 aa] | 0.7198 ± 0.0012 | 0.713 ± 0.029
SPRLKENEHVTN [MPC54 C-terminal 12 aa] | 0.693 ± 0.013 | 0.724 ± 0.072
SPYLKHLDSRKQ [CTS2 C-terminal 12 aa] | 0.722 ± 0.019 | 0.7 ± 0.045
SQEPQYKLFRGR [MRPL16 C-terminal 12 aa] | 0.6988 ± 0.0014 | 0.731 ± 0.069
SQNELRFEERLL [INO1 C-terminal 12 aa] | 0.683 ± 0.021 | 0.675 ± 0.025
SRIKWHVGTAYS [HHY1 C-terminal 12 aa] | 0.6943 ± 0.0031 | 0.6653 ± 0.0066
SRVGRKVATLDQ [YAT2 C-terminal 12 aa] | 0.6994 ± 0.0069 | 0.694 ± 0.038
SSKGFFSKLGCC [YCK2 C-terminal 12 aa] | 0.692 ± 0.0099 | 0.677 ± 0.011
SSSNKSQRNGRY [AIR1 C-terminal 12 aa] | 0.712 ± 0.011 | 0.68967 ± 0.00054
SSSSTSVNKTLD [VIP1 C-terminal 12 aa] | 0.734 ± 0.04 | 0.707 ± 0.053
SSTTEETILVRK [RKM1 C-terminal 12 aa] | 0.689 ± 0.023 | 0.7025 ± 0.0051
STCIYLYTHNSM [YBR206W C-terminal 12 aa] | 0.672 ± 0.027 | 0.673 ± 0.023
STHIDHDKFSFF [CDC8 C-terminal 12 aa] | 0.7087 ± 0.0024 | 0.694 ± 0.021
STQHKSTTSFTQ [TGL4 C-terminal 12 aa] | 0.716 ± 0.035 | 0.655 ± 0.022
STTTVIQGEINK [LRG1 C-terminal 12 aa] | 0.671 ± 0.049 | 0.713 ± 0.036
SVESLMTQQDVE [BIO4 C-terminal 12 aa] | 0.691 ± 0.011 | 0.6941 ± 0.0037

Reference: the supplement of paper PMC10724198
